Source: article PMC7040160, “Indium-111-labeled CD166-targeted peptide as a potential nuclear imaging agent for detecting colorectal cancer stem-like cells in a xenograft mouse model” (EJNMMI Research, 2020)
Values belong to the compound of their own block, whether it stands above or below them. Residues, ends and D or L forms follow the SMILES beside them. No end group written: not given here. *: point of attachment. X1 = O=C(O)CN(CCN(CCN(CC(=O)O)CC(=O)O)C(CCCCNC(=O)CCCN1C(=O)CC(*)C1=O)C(=O)O)CC(=O)O

Columns and labels:
[1] = test system: CD166^+HCT15 xenograft mice; conditions: mouse, in vivo
Procedure: The male BALB/c nude mice were subcutaneously inoculating CD166^+HCT15 cells (1 × 10^6 cells) for 2 weeks, and then the ^111In-DTPA, ^111In-DTPA-G18C, ^111In-DTPA-CD166tp-C, and ^111In-DTPA-CD166tp-G18C (740 MBq/kg/mouse) were intravenously injected into mice. The imaging of CD166 in mice at 2, 4, 24, and 48 h were detected by a nano single-photon emission computed tomography/computed tomography (nanoSPECT/CT; Mediso Medical Imaging Systems, Budapest, Hungary). For competitive study, the CD166^+HCT15-derived xenograft mice were pre-treated with CD166tp-G18C (0, 10, and 50 mg/kg) for 6 h. Every mouse then received 740 MBq/kg ^111In-DTPA-CD166tp-G18C via intravenous injection for 24 and 48 h. The competitive CD166 images were observed by a nanoSPECT/CT.

in vivo = conditions: mouse, iv, 148 MBq/kg/mouse, total radioactivity
Procedure: (§1) CD166^+HCT15 cells were subcutaneously injected into the right hindlimb of mice for establishing CD166-expressed CRC xenograft mouse model. After tumor formation, the ^111In-DTPA, ^111In-DTPA-G18C, ^111In-DTPA-CD166tp-C, and ^111In-DTPA-CD166tp-G18C (148 MBq/kg/mouse) were intravenously injected into mice […]. After 2, 4, 24, and 48 h post-injection, mice were sacrificed and collected blood and organs including the brain, heart, lung, liver, spleen, kidneys, stomach, small intestine, colon, muscle, and tumor. The organ weight was measured. The radioactivity in blood and organs was determined by a 1470 WIZARD gamma counter (PerkinElmer). The percentage of injected dose per gram of tissue (%ID/g) was calculated.

[2] = test system: CD166^+HCT15 xenograft mice; assay: in vivo; conditions: mouse
Procedure: as §1

[3] = test system: CD166^+HCT15 and CD166^−HCT15 cells; assay: Cell viability assay (CCK-8), cell resistance; conditions: 1, 5 and 50 μM, 24 h; absorbance 450 nm; Fig. 3b; n ≥ 5
CD166^+HCT15 cells [4] = assay: CD166tp-G18C binding assay by flow cytometry; type: cell-based, human; conditions: Fig. 5a
Procedure: For CD166 detection on the cellular surface, the optimized density (1 × 10^6 cell) of CD166^+HCT15 and CD166^−HCT15 cells were added with 1 mL PBS with 20 μg IgG-FITC and FITC-conjugated CD166 antibody (CD166ab-FITC) for 1 h. For the CD166tp-G18C binding assay, CD166^+HCT15 and CD166^−HCT15 cells were added with 1 mL PBS with 20 μg CD166tp-G18C-FITC and G18C-FITC for 1 h. In competitive group, CD166^+HCT15 cells were pre-treated with CD166tp-G18C (20 μg/mL) for 1 h and then added 20 μg/mL CD166tp-G18C-FITC for 1 h. After PBS washing, cells were collected for flow cytometric analysis using a FACSCalibur Flow Cytometer (BD Bioscience, San Diego, CA, USA).

CD166^+HCT15 cells [5] = assay: CD166tp-G18C binding assay by immunofluorescence staining; type: cell-based, human; conditions: fixed, 20 μg/mL, 2 h, Fig. 5b
Procedure: (§2) The CD166tp-G18C binding assay was determined by immunofluorescence staining in both CD166^−HCT15 and CD166^+HCT15 cells. Briefly, cells (1 × 10^4 cells) were seeded in 4-well Millicell EZ slides (Merck Millipore, Germany) with culture medium at 37 °C and 5% CO2 for 16 h. Cells were fixed using 4% paraformaldehyde for 30 min at 37 °C. The fixed-cells were then incubated in the SuperBlock Blocking Buffers (Thermo Fisher Scientific, USA) for 30 min. Cells were incubated with CD166tp-G18C-FITC (20 μg/mL) for 2 h. DAPI was used to stain the cell nuclei at a concentration of 0.2 μg DAPI/mL PBS for 10 min. The images were captured by a fluorescence microscope (BX53, Olympus, Japan) coupled to a CCD camera. Digital images were analyzed by an Image-Pro Plus software (Media Cybernetics, USA).

CD166^−HCT15 cells = assay: as above; type: cell-based, human; conditions: fixed, 20 μg/mL, 2 h, Fig. 5b
Procedure: as §2

CD166 protein = molecular target: T1, CD166 protein (Homo sapiens, UniProt Q13740); assay: CD166tp-G18C and CD166 protein interaction assay (immunoprecipitation with CD166 antibody); type: binding; parameters: endogenous in cells; host or cells: HCT15 cells (sorted CD166+ and CD166- populations); conditions: Fig. 5c
T1 sequence (Q13740 28-583): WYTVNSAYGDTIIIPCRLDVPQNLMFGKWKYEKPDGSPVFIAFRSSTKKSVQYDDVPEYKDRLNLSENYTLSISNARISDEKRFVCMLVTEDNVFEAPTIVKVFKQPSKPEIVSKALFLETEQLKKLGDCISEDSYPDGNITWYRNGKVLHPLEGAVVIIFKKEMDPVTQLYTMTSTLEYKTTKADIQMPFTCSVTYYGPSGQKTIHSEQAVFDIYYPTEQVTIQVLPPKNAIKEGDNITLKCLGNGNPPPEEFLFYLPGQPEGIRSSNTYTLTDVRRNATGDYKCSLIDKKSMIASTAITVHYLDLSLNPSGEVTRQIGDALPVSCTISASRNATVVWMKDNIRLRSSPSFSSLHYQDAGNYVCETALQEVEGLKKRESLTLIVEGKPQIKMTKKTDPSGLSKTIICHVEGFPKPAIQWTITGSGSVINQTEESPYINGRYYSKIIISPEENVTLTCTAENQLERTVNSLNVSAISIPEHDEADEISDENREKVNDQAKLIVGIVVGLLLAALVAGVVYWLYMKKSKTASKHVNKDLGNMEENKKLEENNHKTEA
Procedure: HCT15 cells (1 × 10^6 cells) were incubated with 20 μg/mL CD166tp-G18C-FITC in the presence or absence of 20 μg/mL CD166tp-G18C at 4 °C for 1 h. After treating immunoblotting lysis buffer with protease inhibitors cocktail (Hycell International, Taipei, Taiwan), the mixture solution was centrifuged at 14,000 rpm (4 °C) for 10 min. The supernatant was treated with or without 2 μg/mL biotinylated-CD166 antibody (Novus Biologicals, Littleton, CO, USA)-conjugated streptavidin agarose beads (Sigma-Aldrich) at 4 °C overnight. In the competitive group, cells were pre-treated with CD166tp-G18C (20 μg/mL) for 1 h at 4 °C. The fluorescence of immunoprecipitates was detected by an ELISA reader (Perkin Elmer).

Compound: CC(C)C[C@H](NC(=O)[C@H](CC(N)=O)NC(=O)[C@H](CO)NC(=O)[C@H](CC(N)=O)NC(=O)CNC(=O)[C@H](CCC(=O)O)NC(=O)[C@H](CO)NC(=O)[C@@H](N)CC(=O)O)C(=O)N[C@@H](CS)C(=O)N[C@@H](CO)C(=O)N[C@@H](CCC(N)=O)C(=O)N[C@@H](CO)C(=O)NCC(=O)NCC(=O)NCC(=O)NCC(=O)NCC(=O)NCC(=O)NCC(=O)NCC(=O)NCC(=O)NCC(=O)NCC(=O)NCC(=O)NCC(=O)NCC(=O)NCC(=O)NCC(=O)NCC(=O)NCC(=O)N[C@@H](CSC1CC(=O)N(CCCC(=O)NCCCCC(C(=O)O)N(CCN(CC(=O)O)CC(=O)O)CCN(CC(=O)O)CC(=O)O)C1=O)C(=O)O (some centres unmarked) [^111In-DTPA-CD166tp-G18C, metal not drawn] (H-DSEGNSNLCSQSGGGGGGGGGGGGGGGGGGC(X1)-OH; N-terminus and C-terminus assumed)
difference of counts between background and tumor area (nanoSPECT/CT) [1]: about 8 times
tissue to tissue ratio at 48 h (in vivo): 48.9 ± 5.03
tissue uptake at 4 h (in vivo): 10.1 ± 1.26 %ID/g
tissue uptake at 24 h (in vivo): 11.1 ± 2.2 %ID/g
ratio of tumor-to-blood (T/B) [2]: remarkably increased
ratio of tumor-to-muscle (T/M) [2]: remarkably increased
tumor-to-blood ratios [2]: 5.94 ± 0.51

Compound: COc1cccc2c1C(=O)c1c(O)c3c(c(O)c1C2=O)C[C@@](O)(C(=O)CO)C[C@@H]3O[C@H]1C[C@H](N)[C@H](O)[C@H](C)O1 [doxorubicin]
resistance of CD166^+HCT15 cells as compared to CD166^−HCT15 cells (cell viability, CCK-8) [3]: significant resistance

binding via CD166 protein (fluorescence of CD166 antibody immunoprecipitates) (CD166 protein; CD166^+HCT15 cells, 20 μg/mL, 1 h, 4 °C, biotinylated-CD166 antibody 2 μg/mL, n ≥ 3): could bind
Compound: CD166tp-G18C-FITC: FITC-labeled CD166tp-G18C (DSEGNSNLCSQSGGGGGGGGGGGGGGGGGGC; cysteine pairing not given here; also: FITC label, site not given here)
fluorescence of CD166tp-G18C-FITC on cells (flow cytometry) (CD166^+HCT15 cells [4]; CD166^+HCT15 cells, 20 μg/mL, 1 h, n ≥ 3): significantly increased
binding ability by immunofluorescence (CD166^+HCT15 cells [5]): increased
binding ability by immunofluorescence (CD166^−HCT15 cells): but not in CD166^−HCT15 cells

competition: effect of pretreatment on CD166tp-G18C-FITC binding (immunoprecipitation assay) (CD166 protein; pre-treated with 20 μg/mL for 1 h at 4 °C): could be inhibited
Compound: DSEGNSNLCSQSGGGGGGGGGGGGGGGGGGC [CD166tp-G18C, Glycine18-Cysteine-linked CD166-targeted peptide]
competition: effect of pretreatment on binding efficiency of CD166tp-G18C-FITC (flow cytometry) (CD166^+HCT15 cells [4]; CD166^+HCT15 cells pre-treated with 20 μg/mL for 1 h, then 20 μg/mL CD166tp-G18C-FITC 1 h): markedly decreased the binding efficiency of CD166tp-G18C-FITC
